Positions count from the first letter of the chain named.
Biological target: the molecule itself
Assay: negative-stain electron microscopy

B1: Light-Dependent Protochlorophyllide Oxidoreductase, PORB isoform of A. thaliana, wild type (enzyme)
chain: QTAATSSPTVTKSVDGKKTLRKGNVVVTGASSGLGLATAKALAETGKWNVIMACRDFLKAERAAKSVGMPKDSYTVMHLDLASLDSVRQFVDNFRRTETPLDVLVCNAAVYFPTAKEPTYSAEGFELSVATNHLGHFLLARLLLDDLKKSDYPSKRLIIVGSITGNTNTLAGNVPPKANLGDLRGLAGGLNGLNSSAMIDGGDFDGAKAYKDSKVCNMLTMQEFHRRFHEETGVTFASLYPGCIASTGLFREHIPLFRALFPPFQKYITKGYVSETESGKRLAQVVSDPSLTKSGVYWSWNNASASFENQLSEEASDVEKARKVWEISEKLVGLA
**Q.** Does B1 bind?
**A.** Result: binds

B2: Light-Dependent Protochlorophyllide Oxidoreductase (AtPORB) Y177F_H319A double mutant (enzyme, A. thaliana)
chain: B1 chain with Y111F, H253A
**Q.** Does B2 bind?
**A.** Result: binds

Reference: paper doi:10.1101/2023.08.28.555081 (bioRxiv, 2023)
